Data reported in US20190194326A1.

How the values were obtained:
[1] = biological target: CD4 on chimp PBMC cells (chimp) (UniProt P16004); test: flow cytometry, chimp PBMC X301; 1st Leu3a binding, 2nd B4 exposure; Leu3a+ B4- population
[2] = biological target: CD4 on chimp PBMC cells (chimp) (UniProt P16004); test: flow cytometry, chimp PBMC X282, single label control Leu3a-PE
[3] = biological target: CD4 on chimp PBMC cells (chimp) (UniProt P16004); test: flow cytometry, chimp PBMC X282; 1st B4 binding, 2nd Leu3a exposure; double stained population; competitor B4 pre-bound
[4] = biological target: CD4 on chimp PBMC cells (chimp) (UniProt P16004); test: flow cytometry, chimp PBMC X301, single label control Leu3a-PE
[5] = biological target: CD4 on chimp PBMC cells (chimp) (UniProt P16004); test: flow cytometry, chimp PBMC X282; 1st B4 binding, 2nd Leu3a exposure; Leu3a+ B4- population; competitor B4 pre-bound
[6] = biological target: CD4 on chimp PBMC cells (chimp) (UniProt P16004); test: flow cytometry, chimp PBMC X301; 1st B4 binding, 2nd Leu3a exposure; Leu3a+ B4- population; competitor B4 pre-bound
[7] = biological target: CD4 on chimp PBMC cells (chimp) (UniProt P16004); test: flow cytometry, chimp PBMC X282; 1st Leu3a binding, 2nd B4 exposure; Leu3a+ B4- population
[8] = biological target: CD4 on chimp PBMC cells (chimp) (UniProt P16004); test: flow cytometry, chimp PBMC X301; 1st B4 binding, 2nd Leu3a exposure; double stained population; competitor B4 pre-bound

percent positive PBMC [1]: 0.3%
percent positive PBMC [2]: 25.5%
percent positive PBMC [3]: 1.2%
percent positive PBMC [4]: 44%
percent positive PBMC [5]: 0%
percent positive PBMC [6]: 0%
percent positive PBMC [7]: 0.1%
percent positive PBMC [8]: 3%
Substance: Leu3a (antibody)
